Reference: the supplement of paper PMC9170038

System: MS2 coat protein
Test: apparent KD of MS2 coat protein; designed switch direction (-1 OFF switch, 1 ON switch): -1; higher = weaker reporter binding
Procedure, shortened: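 Three titration conditions were used: no input, 200 uM small-molecule ligand, and an oligonucleotide input. In each, SNAP-549-labelled MS2 coat protein was raised from 0.7 or 1.5 nM, doubling, to 3 µM over designed RNA switches transcribed on Illumina chips by stalled E. coli RNA polymerase. Curve fits of normalised cluster fluorescence gave values whose per-design median over clusters is the apparent KD.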

[1] = input ligand: microRNA oligo, concentration not stated
[2] = Eterna round: R95, input ligand: FMN 200 uM
[3] = Eterna round: R95, input ligand: microRNA oligo, concentration not stated
[4] = Eterna round: R95, input ligand: none

Sequence | apparent KD of MS2 coat protein (input ligand: FMN 200 uM) [nM] | apparent KD of MS2 coat protein [1] [nM] | apparent KD of MS2 coat protein (input ligand: none) [nM] | apparent KD of MS2 coat protein [2] [nM] | apparent KD of MS2 coat protein [3] [nM] | apparent KD of MS2 coat protein [4] [nM]
CGGGUGAAUAGAGGAUAUAGUACAUGAGGAUCACCCAUGUAAUAAAUGAGAAUUUCGAAUGUAAUCUAGAAGGCUAGAAAACCC [Ostracism 99 - Jieux - Exclusion NG 2] (Eterna round: R96, puzzle: Exclusion NG 2) | 367 | 150 | 274 | – | – | –
AUUGUUUAUGUAGGAUAUGCCUGGCGUGCCUUUGCAGAAGGACAUGAGGAUCACCCAUGUAUUGCGGUCUGCGUUCAGAUCGCU [salish99_ExNG1_r4_033] (Eterna round: R96, puzzle: Exclusion NG 1) | 44.4 | 28.7 | 30.7 | – | – | –
UUUUGACAAGCGAGAUCCUACAUGAGGAUCACCCAUGUAGACCAUGGUUUCCAUGGUCUUUUUGCUCGUCUUGUGUG [jl TITIN mod 5] (Eterna round: R97, puzzle: Sensor, turn-off variant 1) | 23.2 | – | 23.4 | – | – | –
UAAAUCGCAGGAUAUCCAGAGGAGGACAUGAGGAUCACCCAUGUGGAAAGGAAAGGAGGAGGAGAAGGGCGAUUUA [Paired] (Eterna round: R97, puzzle: Exclusion 5) | 84.4 | – | 72.5 | – | – | –
AAAGAAGAGAGAAAAUAACACAUGAGGAUCACCCAUGUGCGAUGUUGAGGGUGAUACAGGCUUUUUGCUCGUCUUAU (puzzle: Sensor v3, turn-off variant 1) | – | – | – | 311 | 512 | 199
AGUACUAACACGAAAGUGUUAGUACAAUAAGCUAGUGGAACAUGAGGAUCACCCAUGUCCUCAUUAGCUCGUCUUGG [Mat - Sensor v3 - Turn-off var 2 - D40] (puzzle: Sensor v3, turn-off variant 2) | – | – | – | 16.4 | 19.6 | 14.6
ACUUACUGAGGAUAUACAUAGAUUUACAUGAGGAUCACCCAUGUUCCUCUAAGUAUAUAUGUAGAAGGCAGAAGAU [Mat - Exclusion 5 - JL Mod - D39] (Eterna round: R97, puzzle: Exclusion 5) | 202 | – | 116 | – | – | –
AAGGUGGCAGGAUAUACAUGAGGAUCACCCAUGUGAACGUAAGGAGACUCUCUCAAAGGUAGAAGGGUCGGUUC [Eternabot (L2) Solution 1] (Eterna round: R97, puzzle: Exclusion 3) | 56.3 | – | 121 | – | – | –
GCAGUGCGAGGAUAUACAUGAGGAUCACCCAUGUGAGAAGAAUAAGUGAGGAAGAAAAGUAGAAGGCGCGUUGG [Mat - Exclusion 3 - Mod of Salish D68] (puzzle: Exclusion 3) | – | – | – | 71.8 | 47.4 | 54.6
AAGCGCGUAGGAUAUACAUGAGGAUCACCCAUGUGAGGAAGGAGUAGGAAGUGUGGAAGUAGAAGGACGGAGAG [JR_Exclu3_Sub077] (puzzle: Exclusion 3) | – | – | – | 34.4 | 31.1 | 37.4
GGUCAUCAAGUCAGGAUAUCGUCUGGUCGGUCUGGCGAGAAGGGACAUGAGGAUCACCCAUGUCGACUCAUCAG [Ex4 #11] (Eterna round: R97, puzzle: Brourd's mod of Exclusion 4) | 29.2 | – | 17.6 | – | – | –
UAAUUGAUUAAUAGAUUAUACAUGAGGAUCACCCAUGUAGGUCCUACGUGCCAUUUAAGUAGCUCGUCUUAUUAUUA [Sensor-V1 #66] (Eterna round: R97, puzzle: Sensor, turn-off variant 1) | 40.2 | – | 46.5 | – | – | –
GAGUGCUGAGGAUAUACAUGAGGAUCACCCAUGUGCUUCAGCUAGGAGACUAGCAUUGGUAGAAGGCAGUACUC [Mod of lroppy - Jieux - Exclusion 3] (Eterna round: R97, puzzle: Exclusion 3) | 76.8 | – | 12.4 | – | – | –
AUGGUUCGGUCAGGAUAUCGUAGAUUGAAUAGUAUGAUUUACAUGAGGAUCACCCAUGUUACAUACGAGAAGGGACCGAAUCAU [JR_ExcNG2_Sub024] (Eterna round: R96, puzzle: Exclusion NG 2) | – | 10.4 | – | – | – | –
CAGUACUGAGGAUAUACAUGAGGAUCACCCAUGUUCCAAGGCUAGGAUACUAGCAAAGGUAGAAGGCAGUACUG [Mat - Exclusion 3 - Eli Mod - D26] (Eterna round: R97, puzzle: Exclusion 3) | 150 | – | 17.6 | – | – | –
GGGUGCAGGCUGCGGUCCUACAUGAGGAUCACCCAUGUGGUCCGGUGGCGUGGGUCGCCGGACUUGGCUCGUCUUGU [salish99_S_TOV1_R5_014] (Eterna round: R97, puzzle: Sensor, turn-off variant 1) | 91.2 | – | 99.3 | – | – | –
UUUGUUUUGCAAGGAUAUGUUUAAUUUUAGUUUCCUUACACAUGAGGAUCACCCAUGUUAUACUUACAGAAGGUGCGUAAUUUG [Excl-NG2-LRO03] (Eterna round: R96, puzzle: Exclusion NG 2) | – | 122 | – | – | – | –

Sequence | apparent KD of MS2 coat protein (input ligand: FMN 200 uM) [nM] | apparent KD of MS2 coat protein [1] [nM] | apparent KD of MS2 coat protein (input ligand: none) [nM] | apparent KD of MS2 coat protein [2] [nM] | apparent KD of MS2 coat protein [3] [nM] | apparent KD of MS2 coat protein [4] [nM]
UGUUUACAUGAGGAUCACCCAUGUCAGGAUAUGCUCGAUAUAUGGAAACAUAUAUCGAGCAGAAGGGACUAGCG [Jieuxxlusion 4 - Jieux - Exclusion 1] (Eterna round: R97, puzzle: Exclusion 1) | 85 | – | 39.3 | – | – | –
AGAUUAAAUGAGGAUAUCGUAUUGGAUAUAGUGCGAGAAGGCAUGACAUGAGGAUCACCCAUGUAGUGUUGGGA [JR_Ex6_Sub009] (Eterna round: R97, puzzle: Exclusion 6) | 91.5 | – | 43.4 | – | – | –
GCACGGUAAGUGAGGAUAUACCUCUGGAUACAGAGGUAGAAGGCACAUGAGGAUCACCCAUGUUCAAGCCGUGC [Fiskers BMX 4 - 85] (puzzle: Brourd's mod of Exclusion 4) | – | – | – | 14.5 | 13.2 | 14.4
UUGUUGUGUGUAGGAUAUGCGUGUUAUUAUUAUGCAGAAGGACAUGAGGAUCACCCAUGUGUAUUAUUAUUAUAUAUUAUAUAU [Title] (Eterna round: R96, puzzle: Exclusion NG 1) | 23.8 | 17.1 | 23.5 | – | – | –
GCACGGUAAGUGAGGAUAUACCUCUGGAUACAGAGGUAGAAGGCACAUGAGGAUCACCCAUGUCUAAGCCGUGC [Fiskers BMX 4 - 83] (puzzle: Brourd's mod of Exclusion 4) | – | – | – | – | 14.7 | –
GCCAAUGUGGAGGAUAUCGACUUCGAAAGAAGUCGAGAAGGCCACACAUGAGGAUCACCCAUGUGAUGCCAGGC [Omei Ex6 H10] (Eterna round: R97, puzzle: Exclusion 6) | 216 | – | 189 | – | – | –
CAGUACUGAGGAUAUACAUGAGGAUCACCCAUGUGUCCCAGCUAGGAAACUAGCAAAAGUAGAAGGCAGUACUG [828 mod 2 m4] (Eterna round: R97, puzzle: Exclusion 3) | 622 | – | 28.1 | – | – | –
CCUCUGUCAGGAUAUCGUGCAUACAACGAAAGUUCUAUGUGCGAGAAGGGACAUGAGGAUCACCCAUGUUUGCG [Omei Ex4 A21] (Eterna round: R97, puzzle: Exclusion 4) | 225 | – | 62.5 | – | – | –
AAAUGCAAGUAAAGAUUCUACAUGAGGAUCACCCAUGUGCUCGUCUUAUAAAGUACUAUCACGAAAGUGAUAGUACA [Sensor 3, v1 - 35] (puzzle: Sensor v3, turn-off variant 1) | – | – | – | 14.2 | 100 | 14.2
UUUAUAUAGUAAGGAUAUGUAUUAUUGUUAUCAACAGAAGGUACUGACAUGAGGAUCACCCAUGUUUUAGUGUGGGCAUGUAGU [JMF's solution 96] (Eterna round: R96, puzzle: Exclusion NG 1) | 425 | 277 | 446 | – | – | –
UCUGCCGCCGUGAGGAUAUGCCCGCGCGCCCGCGGGCAGAAGGCACAUGAGGAUCACCCAUGUCCCGCGGCAUU [salish99_bmx4_r4_128] (Eterna round: R97, puzzle: Brourd's mod of Exclusion 4) | 36.4 | – | 17.4 | – | – | –
UAACAACAUGAGGAUCACCCAUGUGAGGAUAUGUACGUUCGUUGGCGAACCUUGUUCCGCAGAAGGCAUGUGGG [Eternabot (L1) Solution 28] (Eterna round: R97, puzzle: Exclusion 1) | 232 | – | 38.6 | – | – | –
GGAUCGAAUGUGAGGAUAUGCUGGUCCUUGGAUCAGCAGAAGGCACAUGAGGAUCACCCAUGUGAAGACGGUCC [Eli bmx4 4.31] (Eterna round: R97, puzzle: Brourd's mod of Exclusion 4) | 201 | – | 41.4 | – | – | –
GAUUAACAUGAGGAUCACCCAUGUGAGGAUAUGGACUUGCCCACUUACCCAUUAGAGUCUAGAAGGCGCAUCUG [1986#23] (Eterna round: R97, puzzle: Exclusion 1) | 48.4 | – | 49.8 | – | – | –
UUUAUAAUAAGAUCAAUUAAUUAACAUGAGGAUCACCCAUGUGAGGAUAUCAGCUCGUGUAGAGCUGAGAAGGCACAAUAUAAG [ExNG3/17-B3] (Eterna round: R96, puzzle: Exclusion NG 3) | – | 36.2 | – | – | – | –
GUUGUACAUGAGGAUCACCCAUGUCAGGAUAUCCACCUCAGAAAGUAUACAGGAUUGUGGAGAAGGGACAUUAA [EX1 C.18] (Eterna round: R97, puzzle: Exclusion 1) | 56 | – | 48.5 | – | – | –
